The record followed here is patent publication US20040171074A1, “Structures of substrate binding pockets of SCF complexes” (MOUNT SINAI HOSPITAL, priority 2002, published 2004).

For one assay, the system named is phospho-Sic1. As to the kind of experiment: P-Sic1 pull down: in vitro capture of phospho-Sic1 on immobilized wild type or mutant Cdc4-GST-Skp1, anti-Sic1 immunoblot. Type of assay: binding, yeast. Conditions: Sic1 phosphorylated with Cln2-Cdc28, captured onto GST-Skp1/Cdc4 resin, anti-Sic1 detection. The protocol: Mutational analysis of the CPD binding surface. Mutants were tested in vitro by ability to bind phosphorylated Sic1 and then captured onto GST-Skp1/Cdc4 resin and detected with anti-sic1 antibody. Mutants were tested in vivo by ability to degrade GAL1-SIC1 or various phosphorylation mutants. Sites are as follows: 3=Thr 33, Thr 45, Ser 76; 4=Thr 5, Thr 33, Thr 45, Ser 76; 5=Thr 2, Thr 5, Thr 33, Thr 45, Ser 76; 6=Thr 2, Thr 5, Thr 33, Thr 45, Ser 69, Ser 76; 7=Thr 2, Thr 5, Thr 33, Thr 45, Ser 69, Ser 76, Ser 80. GAL1-SIC1 plasmids were transformed into a cdc4Δ strain containing a copy of CDC4 on a TRP1 ARS CEN plasmid. Strains were incubated for 2 days at 30° C.
Bacterially expressed His6-Sic1 was phosphorylated with Cln2-Cdc28 kinase purified from baculovirus infected Sf9 cells as described before (Nature paper). 1 ug of WT or mutant Cdc4-GST-Skp1, immoblized on GSH-Sepharose resin, was incubated with 0.5 ug phospho-Sic1 at 4 C for 1 h and washed 4 times. Captured complexes were resolved on SDS-PAGE and Sic1 visualized by anti-Sic1 Western blotting and ECL. For IEF-2D analysis, several Sic1 phosphorylation reactions were carried out for different time periods to obtain a spectrum of Sic1 that were phosphorylated at different numbers of its nine CDK sites. This pool of phospho-Sic1 (2.5 ug) was incubated with 5 μg of WT or mutant Cdc4-GST-Skp1 as described above. Different phosphorylation states of Sic1 were separated by denaturing isoelectric focusing (IEF)-2D gel electrophoresis and visualized by anti-Sic1 Western blotting and ECL. IEF was performed using pH 3-10NL Immobiline gel strips and IPGphore IEF system (Amersham pharmacia).
(§1) Cdc4 functional assays. CDC4 mutant alleles were assessed for complementation of a cdc4A strain in a plasmid shuffle assay (Nash et al., 2001). Sensitivity to SIC1 dosage was determined by transformation with pMT837 (GAL1-SIC1) or pMT767 (GAL1-SIC1^T33V) and plating on glucose medium or galactose medium. For in vitro capture of phospho-Sic1 by Cdc4, 0.5 μg of bacterially-expressed ^HIS6Sic1 was phosphorylated with immobilized Cln2-Cdc28 kinase from baculovirus-infected Sf9 cells and then incubated with 1 μg of immobilized wild type or mutant Cdc4^263-744-GST-Skp1, at 4° C. for 1 hr, washed 4 times and visualized by anti-Sic1 immunoblot. For isoelectric focusing (IEF)-2D gel analyses, an evenly distributed pool of phospho-Sic1 isoforms was generated by combining different time points in a Sic1 phosphorylation reaction. 2.5 μg of the phospho-Sic1 pool was bound to 5 μg of immobilized wild type or mutant Cdc4^1-744-GST-Skp1. Captured isoforms were separated by denaturing IEF-2D gel electrophoresis using pH3-10NL Immobiline gel strips (Amersham) and visualized by anti-Sic1 immunoblot. Alternatively, the pool of phospho-Sic1 isoforms was incubated in solution with a ubiquitination reaction mix containing ATP, ubiquitin, yeast E1, Cdc34 and either wild type or mutant SCF^Cdc4 complex, composed of a 1:1 ratio of bacterial Cdc4-GST-Skp1 and insect cell-produced Cdc53-Rbx1, at 30° C. for 1 h as previously described (Nash et al., 2001).
(In western blotting, separated proteins are transferred to a membrane and probed.)

The subject of another assay is cdc4Δ strain. As to the kind of experiment: plasmid shuffle assay: complementation of a cdc4Δ strain by CDC4 alleles. Conditions: viability of cdc4Δ strain on 5-FOA, 2 days at 30° C. Type of assay: cell-based, yeast. The protocol:
All mutants on a TRP1 ARS CEN plasmid were transformed into a cdc4Δ strain (MT 1259) containing a wildtype copy of CDC4 on a URA3 ARS CEN plasmid. Cells were plated on either Trp^−Ura^− or 5-FOA medium for 2 days at 30° C. Viable cells on 5-FOA were grown in Trp medium and transformed with either wild type GAL1-SIC1, GAL1-SIC T45A, or GAL1-SIC T33V on a LEU2 ARS CEN pasmid. Cells were then plated on Leu- Trp-plates containing either glucose or galactose and incubated for 2 days at 30° C.
as §1

B1: T441I/T465I: double mutant cdc4 polypeptide (protein)
chain: MGSFPLAEFPLRDIPVPYSYRVSGGIASSGSVTALVTAAGTHRNSSTAKTVETEDGEEDIDEYQRKRAAGSGESTPERSDFKRVKHDNHKTLHPVNLQNTGAASVDNDGLHNLTDISNDAEKLLMSVDDGSAAPSTLSVNMGVASHNVAAPTTVNAATITGSDVSNNVNSATINNPMEEGALPLSPTASSPGTTTPLAKTTKTINNNNNIADLIESKDSIISPEYLSDEIFSAINNNLPHAYFKNLLFRLVANMDRSELSDLGTLIKDNLKRDLITSLPFEISLKIFNYLQFEDIINSLGVSQNWNKIIRKSTSLWKKLLISENFVSPKGFNSLNLKLSQKYPKLSQQDRLRLSFLENIFILKNWYNPKFVPQRTTLRGHMTSVITCLQFEDNYVITGADDKMIRVYDSINKKFLLQLSGHDGGVWALKYAHGGILVSGSIDRTVRVWDIKKGCCTHVFKGHNSIVRCLDIVEYKNIKYIVTGSRDNTLHVWKLPKESSVPDHGEEHDYPLVFHTPEENPYFVGVLRGHMASVRTVSGHGNIVVSGSYDNTLIVWDVAQMKCLYILSGHTDRIYSTIYDHERKRCISASMDTTIRIWDLENIWNNGECSYATNSASPCAKILGAMYTLQGHTALVGLLRLSDKFLVSAAADGSIRGWDANDYSRKFSYHHTNLSAITTFYVSDNILVSGSENQFNIYNLRSGKLVHANILKDADQIWSVNFKGKTLVAAVEKDGQSFLEILDFSKASKINYVSNPVNSSSSSLESISTSLGLTRTTIIP
For the molecule B1, the P-Sic1 pull down result in the assay on phospho-Sic1 is on record as “fully competent”. Besides, the shuffle result in the assay on cdc4Δ strain is recorded as “viable”.
